One data set addresses T1, hGSTA4-4 (Homo sapiens, UniProt O15217).
T1 construct: gene GSTA4
T1 sequence (O15217 1-222): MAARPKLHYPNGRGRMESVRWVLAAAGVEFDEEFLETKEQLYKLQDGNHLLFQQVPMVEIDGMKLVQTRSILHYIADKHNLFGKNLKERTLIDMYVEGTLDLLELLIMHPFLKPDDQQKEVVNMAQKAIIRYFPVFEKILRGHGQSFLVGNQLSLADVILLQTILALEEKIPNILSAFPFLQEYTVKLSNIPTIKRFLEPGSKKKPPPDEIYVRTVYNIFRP
Kind of data set: UV/Vis initial rates of GS-conjugate formation, Michaelis-Menten fit. The conditions noted are these: read-out: hGSTA4-4; 10 mM GSH, 0.1 M HEPES pH 8.0, 30 °C.

The target in a further data set is T2, hGSTA1-1 (Homo sapiens, UniProt P08263).
T2 construct: gene GSTA1
T2 sequence (P08263 1-222): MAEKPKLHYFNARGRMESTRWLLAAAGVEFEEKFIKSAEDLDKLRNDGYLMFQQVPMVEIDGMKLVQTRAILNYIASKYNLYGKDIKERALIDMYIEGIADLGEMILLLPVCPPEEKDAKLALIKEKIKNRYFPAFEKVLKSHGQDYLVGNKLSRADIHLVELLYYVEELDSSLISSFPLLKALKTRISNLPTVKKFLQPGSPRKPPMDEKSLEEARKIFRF
The description is as above. The conditions noted are these: read-out: KM (mM) / hGSTA1-1; 10 mM GSH, 0.1 M HEPES pH 8.0, 30 °C.

In another data set the target is T3, hGSTK1-1 (Homo sapiens, UniProt Q9Y2Q3).
T3 construct: gene GSTK1
T3 sequence (Q9Y2Q3 1-226): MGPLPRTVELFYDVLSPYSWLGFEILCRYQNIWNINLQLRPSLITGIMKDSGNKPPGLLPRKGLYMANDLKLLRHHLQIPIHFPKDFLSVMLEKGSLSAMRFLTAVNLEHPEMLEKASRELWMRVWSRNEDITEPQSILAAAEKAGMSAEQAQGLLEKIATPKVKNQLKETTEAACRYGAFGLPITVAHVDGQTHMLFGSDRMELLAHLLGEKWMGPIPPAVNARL
The data set is described as above. The conditions noted are these: read-out: hGSTK1-1; 10 mM GSH, 0.1 M HEPES pH 8.0, 30 °C.

Substrate in data set [1]: COC(=O)c1cc([N+](=O)[O-])ccc1Cl
Nature of the data set: UV/Vis initial rates of GS-conjugate formation, Lineweaver-Burk fit. It is filed as biochemical, Homo sapiens. The conditions noted are these: 10 mM GSH, 0.1 M HEPES pH 8.0, 30 °C. The source says: (§1) UV/Vis initial rates of GS-conjugate formation, Lineweaver-Burk fit on hGSTA1-1

Substrate in data set [2]: COC(=O)c1ccc(Cl)c([N+](=O)[O-])c1
The data set is described as above. It is filed as biochemical, Homo sapiens. Particulars: 10 mM GSH, 0.1 M HEPES pH 8.0, 30 °C.
From the text: as §1

Substrate in data set [3]: O=C(NCCCCC[P+](c1ccccc1)(c1ccccc1)c1ccccc1)c1cc([N+](=O)[O-])ccc1Cl
Kind of data set: purified protein. The conditions noted are these: 10 mM GSH, 0.1 M HEPES pH 8.0, 30 °C.

Substrate in data set [4]: O=C(NCCCCC[P+](c1ccccc1)(c1ccccc1)c1ccccc1)c1ccc(Cl)c([N+](=O)[O-])c1
Nature of the data set: purified protein. The conditions noted are these: 10 mM GSH, 0.1 M HEPES pH 8.0, 30 °C.

Substrate in data set [5]: O=[N+]([O-])c1cc([N+](=O)[O-])c(NCCCC[P+](c2ccccc2)(c2ccccc2)c2ccccc2)cc1Cl
Nature of the data set: purified protein. The conditions noted are these: 10 mM GSH, 0.1 M HEPES pH 8.0, 30 °C.

Substrate in data set [6]: COC(=O)c1cc([N+](=O)[O-])ccc1Cl
Kind of data set: UV/Vis initial rates of GS-conjugate formation, Lineweaver-Burk fit. It is filed as biochemical, Homo sapiens. The conditions noted are these: 10 mM GSH, 0.1 M HEPES pH 8.0, 30 °C. The source says: (§2) UV/Vis initial rates of GS-conjugate formation, Lineweaver-Burk fit on hGSTK1-1
The source holds these as a separate data set.

Substrate in data set [7]: COC(=O)c1ccc(Cl)c([N+](=O)[O-])c1
Described as above. It is filed as biochemical, Homo sapiens. Particulars: 10 mM GSH, 0.1 M HEPES pH 8.0, 30 °C.
From the text: as §2
The source holds these as a separate data set.

Substrate in data set [8]: COC(=O)c1cc([N+](=O)[O-])ccc1Cl
The data set is described as above. It is filed as biochemical, Homo sapiens. The conditions noted are these: 10 mM GSH, 0.1 M HEPES pH 8.0, 30 °C. The source says:
(§3) UV/Vis initial rates of GS-conjugate formation, Lineweaver-Burk fit on hGSTA4-4
The source holds these as a separate data set.

Substrate in data set [9]: COC(=O)c1ccc(Cl)c([N+](=O)[O-])c1
The data set is described as above. It is filed as biochemical, Homo sapiens. The conditions noted are these: 10 mM GSH, 0.1 M HEPES pH 8.0, 30 °C.
From the text: as §3
The source holds these as a separate data set.

In the case of `O=[N+]([O-])c1ccc(Cl)c([N+](=O)[O-])c1` [compound 1, 1-chloro-2,4-dinitrobenzene], the Km came out at 253 ± 52 µM on hGSTA4-4, 0.128 ± 0.018 mM on hGSTA1-1 and 1900 ± 320 µM at hGSTK1-1.

B1: hGSTA1-1 (Homo sapiens) (protein)
chain: T2 sequence (P08263 1-222)
notes: N-terminal 6xHis tag and TEV site (pNIC-28-BsaI), not cleaved; E. coli BL21(DE3), codon-optimised synthetic gene; Ni-NTA
As to B1, the Km was 1670 ± 50 µM in data set [1]; 2050 ± 770 µM in data set [2]; 720 ± 17 µM in the data set “purified protein [3]”; 441 ± 10 µM in “purified protein [4]”; 146 ± 20 µM in the data set “purified protein [5]”. Also, the kcat (usually the number of substrate molecules converted per active site and unit of time at saturation) in data set [1] was 2.31 ± 0.55 s⁻¹; in [2], 8.85 ± 2.79 s⁻¹; in “purified protein [3]”, “(4.67 ± 0.19) x 10^-2 s^-1”; in “purified protein [4]” it was 9.50 ± 0.45 s⁻¹; in “purified protein [5]”, 14.7 ± 0.6 s⁻¹.

B2: hGSTK1-1 (Homo sapiens) (protein)
chain: T3 sequence (Q9Y2Q3 1-226)
notes: as for B1
Regarding B2, the Km in data set [6] is 1540 ± 30 µM; in data set [7] it was 301 ± 8 µM; in “purified protein [5]”, 360 ± 67 µM. The kcat entry was “(9.45 ± 0.68) x 10^-2 s^-1” in data set [6], 0.106 ± 0.008 s⁻¹ in [7] and 0.103 ± 0.008 s⁻¹ in “purified protein [5]”.

B3: hGSTA4-4 (Homo sapiens) (protein)
chain: T1 sequence (O15217 1-222)
notes: as for B1
In the case of B3, the Km in data set [8] was 949 ± 27 µM; in data set [9], 3580 ± 90 µM; in “purified protein [4]” it was 826 ± 5 µM; in the data set “purified protein [5]”, 142 ± 9 µM. Also, the kcat result in data set [8] was “(5.61 ± 0.37) x 10^-2 s^-1”; in data set [9], 0.521 ± 0.203 s⁻¹; in the data set “purified protein [4]”, 2.13 ± 0.05 s⁻¹; in “purified protein [5]” it was 4.59 ± 0.08 s⁻¹.
